Values of other authors as cited in PMC6295471.

What was measured:
Mxd1 5-24 (Homo sapiens) = Mxd1 5-24 (Homo sapiens) (UniProt Q05195)
Mxd1 5-20 (Homo sapiens) = Mxd1 5-20 (Homo sapiens) (UniProt Q05195)
Sap30 SID (Mus musculus) = Sap30 SID (Mus musculus) (UniProt O88574)
Chain of UniProt O88574 (O88574 130-220): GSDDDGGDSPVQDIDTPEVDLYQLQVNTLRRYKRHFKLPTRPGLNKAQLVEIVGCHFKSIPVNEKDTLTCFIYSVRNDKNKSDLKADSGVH

Chain of UniProt Q05195 (Q05195 5-24): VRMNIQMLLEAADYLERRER

Kd (Mxd1 5-24 (Homo sapiens)) [nM] | Kd (Mxd1 5-20 (Homo sapiens)) [nM] | Kd (Sap30 SID (Mus musculus)) [nM] | Substance
400 | 1400 | – | Sin3 PAH2 (from UniProt Q62141)
– | – | 10 | Sin3 PAH3 (from UniProt Q60520)
